T1: CD25 endogenously expressed on SUDHL-1 human lymphoma cell line and induced human Treg (iTreg) (human, UniProt P01589 22-272)
T1 sequence (looked up): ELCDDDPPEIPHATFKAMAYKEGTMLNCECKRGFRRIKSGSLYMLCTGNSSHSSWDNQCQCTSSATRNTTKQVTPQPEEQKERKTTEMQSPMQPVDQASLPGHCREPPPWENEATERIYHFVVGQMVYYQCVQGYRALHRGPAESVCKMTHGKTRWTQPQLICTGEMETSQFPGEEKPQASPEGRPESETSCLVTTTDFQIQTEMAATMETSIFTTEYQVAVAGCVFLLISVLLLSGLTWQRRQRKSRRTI

T2: human IL2R on HEK blue human IL2R overexpressing cell line (human, UniProt P01589 22-272; P14784 27-551; P31785 23-369)
T2 sequence (looked up) 1: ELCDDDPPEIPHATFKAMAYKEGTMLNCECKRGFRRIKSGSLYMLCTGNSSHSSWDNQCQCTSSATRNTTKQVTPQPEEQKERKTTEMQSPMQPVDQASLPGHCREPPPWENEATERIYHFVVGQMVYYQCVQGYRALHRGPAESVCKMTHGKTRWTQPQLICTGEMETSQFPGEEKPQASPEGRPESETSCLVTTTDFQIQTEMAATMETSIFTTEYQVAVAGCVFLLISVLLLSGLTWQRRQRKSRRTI
T2 sequence (looked up) 2: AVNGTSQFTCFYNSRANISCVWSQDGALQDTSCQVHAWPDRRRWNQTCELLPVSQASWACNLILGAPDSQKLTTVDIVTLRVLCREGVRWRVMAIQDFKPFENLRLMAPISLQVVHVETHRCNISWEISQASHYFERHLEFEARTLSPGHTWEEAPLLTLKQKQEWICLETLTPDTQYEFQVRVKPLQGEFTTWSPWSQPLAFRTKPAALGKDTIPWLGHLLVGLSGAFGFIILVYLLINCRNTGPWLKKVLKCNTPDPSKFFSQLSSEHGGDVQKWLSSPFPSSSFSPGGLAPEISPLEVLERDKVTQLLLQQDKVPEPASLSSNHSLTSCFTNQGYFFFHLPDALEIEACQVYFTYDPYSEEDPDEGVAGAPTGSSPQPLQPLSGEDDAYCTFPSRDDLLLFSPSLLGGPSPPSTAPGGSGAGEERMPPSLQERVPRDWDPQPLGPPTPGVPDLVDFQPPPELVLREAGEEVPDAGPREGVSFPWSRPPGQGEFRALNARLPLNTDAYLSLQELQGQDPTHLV
T2 sequence (looked up) 3: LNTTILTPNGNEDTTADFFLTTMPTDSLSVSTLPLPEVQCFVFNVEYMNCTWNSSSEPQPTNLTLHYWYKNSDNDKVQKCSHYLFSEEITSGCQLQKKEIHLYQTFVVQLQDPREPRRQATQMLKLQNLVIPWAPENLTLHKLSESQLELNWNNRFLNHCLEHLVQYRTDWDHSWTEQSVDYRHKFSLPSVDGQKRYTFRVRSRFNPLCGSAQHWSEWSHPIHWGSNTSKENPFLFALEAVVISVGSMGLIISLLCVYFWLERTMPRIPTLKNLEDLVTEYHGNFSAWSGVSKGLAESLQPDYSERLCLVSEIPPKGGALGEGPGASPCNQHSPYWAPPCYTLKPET

T3: CD25 (as used on the Carterra LSA) (Homo sapiens (Human), UniProt P01589 22-240)
T3 sequence: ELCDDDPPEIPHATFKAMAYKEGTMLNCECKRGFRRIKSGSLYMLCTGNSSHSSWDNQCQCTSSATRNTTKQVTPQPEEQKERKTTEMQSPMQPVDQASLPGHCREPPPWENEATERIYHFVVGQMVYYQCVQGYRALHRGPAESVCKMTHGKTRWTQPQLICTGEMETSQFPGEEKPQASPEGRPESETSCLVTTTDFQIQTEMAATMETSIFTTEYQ

T4: human CD25 (Sino Biologicals, 10165-H08H) (human, UniProt P01589 22-213)
T4 construct: Bought recombinant protein coated on ELISA plates; also called immobilized human CD25; IL2RA
T4 sequence (looked up): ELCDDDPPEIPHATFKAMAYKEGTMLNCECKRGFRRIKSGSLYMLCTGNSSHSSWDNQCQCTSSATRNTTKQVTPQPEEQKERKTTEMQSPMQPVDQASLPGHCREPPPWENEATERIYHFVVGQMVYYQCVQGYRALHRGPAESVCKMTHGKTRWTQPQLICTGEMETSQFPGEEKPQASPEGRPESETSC

T5: cynomolgus CD25 (Sino Biologicals, 90265-C08H) (cynomolgus, UniProt H6WS54 22-240)
T5 construct: Bought recombinant protein coated on ELISA plates; also called cynos monkey CD25; immobilized cynomolgus CD25
T5 sequence: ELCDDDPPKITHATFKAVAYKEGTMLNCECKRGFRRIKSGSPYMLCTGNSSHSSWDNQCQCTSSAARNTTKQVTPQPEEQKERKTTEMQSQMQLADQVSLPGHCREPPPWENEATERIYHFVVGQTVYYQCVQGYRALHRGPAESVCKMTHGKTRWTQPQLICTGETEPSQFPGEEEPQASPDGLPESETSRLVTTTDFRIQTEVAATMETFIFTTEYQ


What was measured:
[1] = target: T1, CD25 endogenously expressed on SUDHL-1 …; assay: cell-based or functional assay
[2] = target: T1, CD25 endogenously expressed on SUDHL-1 …; assay: cell-based or functional assay; remark: listed apart in the source
[3] = target: T2, human IL2R on HEK blue human IL2R …; assay: cell-based or functional assay
[4] = target: T3, CD25 (as used on the Carterra LSA); assay: Carterra LSA binding kinetics
[5] = target: T3, CD25 (as used on the Carterra LSA); assay: Carterra LSA binding kinetics; KD SD 1.27 nM
[6] = target: T1, CD25 endogenously expressed on SUDHL-1 …; assay: flow cytometry on iTreg cells; average of n=3; SD 83.94
Procedure: (§1) The plates were centrifuged and then kept on ice for the remaining essay steps after aspiration of the supernatant. Following supernatant aspiration, the anti-CD25 or control antibodies in the assay buffer were added to the cells at increasing concentrations (0.64-10,000 ng/ml) for 20 minutes on ice. After incubation, the plates were centrifuged and the supernatant was aspirated, then the cells were washed once with the assay buffer followed by centrifugation and supernatant aspiration. […] After incubation, the plates were centrifuged and the supernatant was aspirated, then the cells were washed once with the assay buffer followed by centrifugation and supernatant aspiration. […] Cell binding was analyzed on a Miltenyi MACSQuant 16 flow cytometer. Flow cytometry data were analyzed with the FlowJo flow cytometry analysis software. For making graphs and calculation of the EC₅₀ values GraphPad Prism 9.3.0 was used.

[7] = target: T1, CD25 endogenously expressed on SUDHL-1 …; assay: flow cytometry on SUDHL-1 cells; average of n>=6; SD 38.12
Procedure: SUDHL-1 and iTreg Cell Binding Assay.
as §1

[8] = target: T4, human CD25 (Sino Biologicals, …); assay: ELISA, plate coated with human CD25; average of n>=3; SD 3.2
Procedure: (§2) Values plotted are measured absorbance at 450 nm wavelength.
(§3) CD25 Binding ELISA. […] The next day, plates were washed three times with wash buffer [1X PBS with 0.1% Tween-20 (Teknova, P0207)] followed by the addition of blocking buffer [1X PBS, 1% BSA (Teknova, B0101)] for 1 hour at room temperature. After blocking, plates were washed three times with wash buffer followed by the addition of the anti-CD25 or control antibodies in wash buffer at increasing concentrations (0.0006-10 μg/mL) for 1 hour at room temperature. After incubation, plates were washed three times with wash buffer followed by the addition of goat anti-human IgG-HRP secondary antibody (Biorad, STAR126P) at 1:2500 dilution in wash buffer for 1 hour at room temperature. […] After TMB substrate incubation, ELISA stop solution (Thermo Fisher, SS04) was added to the plate at equal volume to the TMB substrate and the absorbance was read at 450 nm. The data was plotted using GraphPad Prism 9.3.0 software and the EC₅₀ values were calculated by the software.

[9] = target: T5, cynomolgus CD25 (Sino Biologicals, …); assay: ELISA, plate coated with cynomolgus CD25; average of n>=3; SD 9.8
Procedure: as §2, §3

[10] = target: T3, CD25 (as used on the Carterra LSA); assay: Carterra LSA binding kinetics; KD SD 0.69 nM
[11] = target: T1, CD25 endogenously expressed on SUDHL-1 …; assay: flow cytometry on iTreg cells; average of n=3; SD 63.88
Procedure: as §1

[12] = target: T1, CD25 endogenously expressed on SUDHL-1 …; assay: flow cytometry on SUDHL-1 cells; average of n>=6; SD 39.71
Procedure: SUDHL-1 and iTreg Cell Binding Assay.
as §1

[13] = target: T4, human CD25 (Sino Biologicals, …); assay: ELISA, plate coated with human CD25; average of n>=3; SD 3.3
Procedure: as §2, §3

[14] = target: T5, cynomolgus CD25 (Sino Biologicals, …); assay: ELISA, plate coated with cynomolgus CD25; average of n>=3; SD 8.8
Procedure: as §2, §3

[15] = target: T3, CD25 (as used on the Carterra LSA); assay: Carterra LSA binding kinetics; KD SD 0.37 nM
[16] = target: T1, CD25 endogenously expressed on SUDHL-1 …; assay: flow cytometry on iTreg cells; average of n=3; SD 44.59
Procedure: as §1

[17] = target: T1, CD25 endogenously expressed on SUDHL-1 …; assay: flow cytometry on SUDHL-1 cells; average of n>=6; SD 26.2
Procedure: SUDHL-1 and iTreg Cell Binding Assay.
as §1

[18] = target: T4, human CD25 (Sino Biologicals, …); assay: ELISA, plate coated with human CD25; average of n>=3; SD 4.9
Procedure: as §2, §3

[19] = target: T5, cynomolgus CD25 (Sino Biologicals, …); assay: ELISA, plate coated with cynomolgus CD25; average of n>=3; SD 19.5
Procedure: as §2, §3

[20] = target: T3, CD25 (as used on the Carterra LSA); assay: Carterra LSA binding kinetics; KD SD 1.03 nM
[21] = target: T1, CD25 endogenously expressed on SUDHL-1 …; assay: flow cytometry on iTreg cells; average of n=3; SD 40.50
Procedure: as §1

[22] = target: T1, CD25 endogenously expressed on SUDHL-1 …; assay: flow cytometry on SUDHL-1 cells; average of n>=6; SD 39.9
Procedure: SUDHL-1 and iTreg Cell Binding Assay.
as §1

[23] = target: T4, human CD25 (Sino Biologicals, …); assay: ELISA, plate coated with human CD25; average of n>=3; SD 2.5
Procedure: as §2, §3

[24] = target: T5, cynomolgus CD25 (Sino Biologicals, …); assay: ELISA, plate coated with cynomolgus CD25; average of n>=3; SD 12.3
Procedure: as §2, §3

| EC50, SUDHL-1/NFAT CD16 ADCC reporter assay [1] [µg/mL] | EC50, iTreg/NFAT CD16 ADCC reporter assay [2] [µg/mL] | EC50, IL-2 reporter HEK293 pSTAT5 assay (activation of STAT5 by IL2 in presence of the antibody) [3] [ng/ml] | koff [4] [s⁻¹] | kon [4] [M⁻¹ s⁻¹] | Binder | further results |
| --- | --- | --- | --- | --- | --- | --- |
| 0.0089 | 0.00714 | 0.17 | 0.00207 | 492000 | IBIO-101-plant-afuc (SD-889825-PC-A; IBIO-101, c-105 plant Afucosylated) (antibody, human IgG1, kappa, V domains shown, Same antibody made in C105 deltaXT/FT N. benthamiana plants, glycans without fucose and xylose; also called RTX-003; hD11) VH: QVQLVQSGAEVKKPGASLKISCKGSGYTFTDYAMHWVRQAPGQGLEWIGVISTYSGDAIYAQKFQGRATMTVDTSTSTAYLELSSLRSEDTAVYYCARGVTFDYWGQGTTVTVSS VL: DIQMTQSPSSLSASVGDRVTITCRASQDISNYLEWYQQKPGKAPKLLVYNAKTLAEGVPSRFSGSGSGTDFTLTISSLQPEDFGTYYCQHHYDTPYTFGQGTKLEIKR | Kd [5]: 4.27 nM; EC50 [6]: 0.218 µg/mL; EC50 [7]: 0.123 µg/mL; EC50 [8]: 0.0174 µg/mL; EC50 [9]: 0.0424 µg/mL |
| 0.0325 | 0.0303 | 0.21 | 0.0012 | 485000 | IBIO-101-plant-WT (SD-889825-PW-A; IBIO-101, wild-type plant) (antibody, human IgG1, kappa, V domains shown, Same antibody made in wild-type Nicotiana benthamiana plants; also called RTX-003; hD11) VH: QVQLVQSGAEVKKPGASLKISCKGSGYTFTDYAMHWVRQAPGQGLEWIGVISTYSGDAIYAQKFQGRATMTVDTSTSTAYLELSSLRSEDTAVYYCARGVTFDYWGQGTTVTVSS VL: DIQMTQSPSSLSASVGDRVTITCRASQDISNYLEWYQQKPGKAPKLLVYNAKTLAEGVPSRFSGSGSGTDFTLTISSLQPEDFGTYYCQHHYDTPYTFGQGTKLEIKR | Kd [10]: 4.2 nM; EC50 [11]: 0.235 µg/mL; EC50 [12]: 0.126 µg/mL; EC50 [13]: 0.016 µg/mL; EC50 [14]: 0.0439 µg/mL |

The remaining lines, values behind:

| Binder | EC50, SUDHL-1/NFAT CD16 ADCC reporter assay [1] [µg/mL] | EC50, iTreg/NFAT CD16 ADCC reporter assay [2] [µg/mL] | EC50, IL-2 reporter HEK293 pSTAT5 assay (activation of STAT5 by IL2 in presence of the antibody) [3] [ng/ml] | koff [4] [s⁻¹] | kon [4] [M⁻¹ s⁻¹] | further results |
| --- | --- | --- | --- | --- | --- | --- |
| IBIO-101-CHO-WT (SD-889825-CW-A; IBIO-101, wild-type CHO cells) (antibody, human IgG1, kappa, V domains shown, The signal peptide is marked only by bold print (lost here); also called RTX-003; hD11) VH: QVQLVQSGAEVKKPGASLKISCKGSGYTFTDYAMHWVRQAPGQGLEWIGVISTYSGDAIYAQKFQGRATMTVDTSTSTAYLELSSLRSEDTAVYYCARGVTFDYWGQGTTVTVSS VL: DIQMTQSPSSLSASVGDRVTITCRASQDISNYLEWYQQKPGKAPKLLVYNAKTLAEGVPSRFSGSGSGTDFTLTISSLQPEDFGTYYCQHHYDTPYTFGQGTKLEIKR | 0.0845 | 0.0538 | 0.17 | 0.00192 | 471000 | Kd [15]: 4.1 nM; EC50 [16]: 0.223 µg/mL; EC50 [17]: 0.123 µg/mL; EC50 [18]: 0.0199 µg/mL; EC50 [19]: 0.0544 µg/mL |
| IBIO-101-CHO-afuc (SD-889825-CG-A; IBIO-101, CHO cells Afucosylated) (antibody, human IgG1, kappa, V domains shown, Same antibody made in CHO cells, afucosylated glycans; also called RTX-003; hD11) VH: QVQLVQSGAEVKKPGASLKISCKGSGYTFTDYAMHWVRQAPGQGLEWIGVISTYSGDAIYAQKFQGRATMTVDTSTSTAYLELSSLRSEDTAVYYCARGVTFDYWGQGTTVTVSS VL: DIQMTQSPSSLSASVGDRVTITCRASQDISNYLEWYQQKPGKAPKLLVYNAKTLAEGVPSRFSGSGSGTDFTLTISSLQPEDFGTYYCQHHYDTPYTFGQGTKLEIKR | 0.0072 | 0.00471 | 0.17 | 0.00119 | 499000 | Kd [20]: 3.9 nM; EC50 [21]: 0.219 µg/mL; EC50 [22]: 0.126 µg/mL; EC50 [23]: 0.0156 µg/mL; EC50 [24]: 0.0431 µg/mL |

Reference: US20250034267A1 (published 2025)
